Results taken from patent US20050118651A1.

Legend:
[1] = biological target: synthetic Aβ1-42 peptide (aggregated in the ELISAs) (human) (UniProt P05067); assay: ELISA on aggregated synthetic Aβ1-42; given as ED50
[2] = biological target: soluble [125I]Aβ1-42 (synthetic Aβ1-42 sonicated in DMSO, radio-iodinated) (human) (UniProt P05067); assay: capture radioimmunoassay, 50,000 CPM of 125I-Aβ1-42 (or 125I-Aβ1-40), antibody at 10 µg/ml

EC50 [1] | % of radioactive counts bound at 10 µg/ml [2] | Substance
0.667 nM | 7% | antibody 12B4 (IgG2a)
0.053 nM | 2% | antibody 10D5 (IgG1)
